According to FireProtDB:

B1: L7I|R17V|A28D|A35R|L110F|S111V|S115E|L120R|H121Y|G123D|T138Q|D139G|E140D|Q144E|A149D|Q165D|D174E|K234H|E237D, Q88HV5 (parent)
chain: MPFQQGLLATPVPAHARHLFFTLQSPEALPAALDALLPQVDGKQLLLGVGAPLAKALGREIPGLRPFPLLDAAVENPSTQHALWLWLRGDERGDLLLRTQALEQALAPALSLADSVDGFLHRGGHDLTGYEDGTENPTDEEAVQAAIAADGSSFAAFQLWKHDLQYFKSLPQADQDNIIGRRLSDNEELDDAPASAHVKRTAQESFEPEAFMVRRSVSWADQRGAGLAFVALGKSFEAFEVQLRRMSGLEDGIIDGLYRFSRPLTGGYYWCPPMSETGVDLSPLLRA

Variants of: B1
Conditions: Pseudomonas putida (strain ATCC 47054 / DSM 6125 / CFBP 8728 / NCIMB 11950 / KT2440); pH 7.6; Fluorescence spectroscopy; whole UniProt chain shown
With MPFQQGILATPVPAHAVHLFFTLQSPEDLPAALDRLLPQVDGKQLLLGVGAPLAKALGREIPGLRPFPLLDAAVENPSTQHALWLWLRGDERGDLLLRTQALEQALAPAFVLADEVDGFRYRDGHDLTGYEDGTENPQGDEAVEAAIADDGSSFAAFQLWKHDLDYFKSLPQAEQDNIIGRRLSDNEELDDAPASAHVKRTAQESFEPEAFMVRRSVSWADQRGAGLAFVALGHSFDAFEVQLRRMSGLEDGIIDGLYRFSRPLTGGYYWCPPMSETGVDLSPLLRA [L7I R17V A28D A35R L110F S111V S115E L120R H121Y G123D T138Q D139G E140D Q144E A149D Q165D D174E K234H E237D] the Tm was 65 °C.
Variant MPFQQGILATPVPAHARHLFFTLQSPEALPAALDALLPQVDGKQLLLGVGAPLAKALGREIPGLRPFPLLDAAVENPSTQHALWLWLRGDDRGDLLLRTQALEQALAPAFVLADSVDGFLHRGGHDLTGYEDGTENPTDEEAVQAAIAADGSSFAAFQLWKHDLDYFKSLPQAEQDNIIGRRLSDNEELDDAPESAHVKRTAQESFEPEAFMVRRSMSWADGRGAGLAFVALGHSFDAFEVQLRRMSGLEDGIIDGLYRFSRPLTGGYYWCPPMSETGVDLSPLLRA [L7I E91D L110F S111V Q165D D174E A194E V217M Q222G K234H E237D] has a Tm of 71 °C.
MPFQQGILATPVPAHAVHLFFTLQSPEDLPAALDALLPQVDGKQLLLGVGAPLAKALGREIPGLRPFPLLDAAVENPSTQHALWLWLRGDDRGDLFHRAQALIQALAPAFVLADEVDGFRYRDGHDLTGYEDGTENPQDEEAVQAAIADDGSSFAAFQLWKHDLDYFKSLPQADQDNIIGRRLSDNEELDDAPASAHVKRTAQESFEPEAFMVRRSVSWADQRGAGLAFVALGKSFEAFEVQLRRMSGLEDGIIDGLYRFSRPLTGGYYWCPPMSETGVDLSPLLRA [L7I R17V A28D E91D L96F L97H T99A E103I L110F S111V S115E L120R H121Y G123D T138Q A149D Q165D] showed a Tm of 71 °C.
Variant MPFQQGILATPVPAHAVHLFFTLQSPEDLPAALDALLPQVDGKQLLLGIGAPLAKALGREIPGLRPFPLLDAAVENPSTQHALWLWLRGDDRGDLFHRAQALIQALAPAFVLADEVDGFRYRDGHDLTGYEDGTENPQGDEAVEAAIADDGSSFAAFQLWKHDLQYFKSLPQADQDNIIGRRLSDNEELDDAPASAHVKRTAQESFEPEAFMVRRSVSWADQRGAGLAFVALGKSFEAFEVQLRRMSGLEDGIIDGLYRFSRPLTGGYYWCPPMSETGVDLSPLLRA [L7I R17V A28D V49I E91D L96F L97H T99A E103I L110F S111V S115E L120R H121Y G123D T138Q D139G E140D Q144E A149D] has a Tm of 65 °C.
Variant MPFQQGILATPVPAHAVHLFFTLQSPEDLPAALDRLLPQVDGKQLLLGIGAPLAKALGREIPGLRPFPLLDAAVENPSTQHALWLWLRGDDRGDLFHRAQALIQALAPALSLADSVDGFLHRGGHDLTGYEDGTENPTDEEAVQAAIAADGSSFAAFQLWKHDLDYFKSLPQADQDNIIGRRLSDNEELDDAPASAHVKRTAQESFEPEAFMVRRSMSWADGRGAGLAFVALGHSFDAFEVQLRRMSGLEDGIIDGLYRFSRPLTGGYYWCPPMSETGVDLSPLLRA [L7I R17V A28D A35R V49I E91D L96F L97H T99A E103I Q165D V217M Q222G K234H E237D] has a Tm of 67 °C.
Work on MPFQQGILATPVPAHAVHLFFTLQSPEALPAALDRLLPQVDGKQLLLGVGAPLAKALGREIPGLRPFPLLDAAVENPSTQHALWLWLRGDERGDLLLRTQALEQALAPALSLADSVDGFLHRGGHDLTGYEDGTENPTDEEAVQAAIAADGSSFAAFQLWKHDLDYFKSLPQADQDNIIGRRLSDNEELDDAPASAHVKRTAQESFEPEAFMVRRSVSWADQRGAGLAFVALGKSFDAFEVQLRRMSGLEDGIIDGLYRFSRPLTGGYYWCPPMSETGVDLSPLLRA [L7I R17V A35R Q165D E237D] yielded a Tm of 75 °C.
MPFQQGILATPVPAHAVHLFFTLQSPEDLPAALDRLLPQVDGKQLLLGIGAPLAKALGREIPGLRPFPLLDAAVENPSTQHALWLWLRGDERGDLLLRTQALEQALAPALSLADSVDGFLHRGGHDLTGYEDGTENPTDEEAVQAAIADDGSSFAAFQLWKHDLQYFKSLPQAEQDNIIGRRLSDNEELDDAPASAHVKRTAQESFEPEAFMVRRSVSWADGRGAGLAFVALGHSFDAFEVQLRRMSGLEDGIIDGLYRFSRPLTGGYYWCPPMSETGVDLSPLLRA [L7I R17V A28D A35R V49I A149D D174E Q222G K234H E237D] showed a Tm of 69 °C.
MPFQQGILATPVPAHAVHLFFTLQSPEDLPAALDRLLPQVDGKQLLLGVGAPLAKALGREIPGLRPFPLLDAAVENPSTQHALWLWLRGDDRGDLLLRTQALIQALAPAFVLADEVDGFRYRDGHDLTGYEDGTENPQGDEAVEAAIAADGSSFAAFQLWKHDLDYFKSLPQADQDNIIGRRLSDNEELDDAPASAHVKRTAQESFEPEAFMVRRSVSWADQRGAGLAFVALGHSFDAFEVQLRRMSGLEDGIIDGLYRFSRPLTGGYYWCPPMSETGVDLSPLLRA [L7I R17V A28D A35R E91D E103I L110F S111V S115E L120R H121Y G123D T138Q D139G E140D Q144E Q165D K234H E237D] showed a Tm of 73 °C.
MPFQQGILATPVPAHAVHLFFTLQSPEDLPAALDRLLPQVDGKQLLLGIGAPLAKALGREIPGLRPFPLLDAAVENPSTQHALWLWLRGDDRGDLFHRAQALIQALAPAFVLADEVDGFRYRDGHDLTGYEDGTENPQGDEAVEAAIADDGSSFAAFQLWKHDLDYFKSLPQAEQDNIIGRRLSDNEELDDAPESAHVKRTAQESFEPEAFMVRRSMSWADGRGAGLAFVALGHSFDAFEVQLRRMSGLEDGIIDGLYRFSRPLTGGYYWCPPMSETGVDLSALLRA [L7I R17V A28D A35R V49I E91D L96F L97H T99A E103I L110F S111V S115E L120R H121Y G123D T138Q D139G E140D Q144E A149D Q165D D174E A194E V217M Q222G K234H E237D P283A] showed a Tm of 83 °C.
Variant MPFQQGILATPVPAHARHLFFTLQSPEALPAALDALLPQVDGKQLLLGVGAPLAKALGREIPGLRPFPLLDAAVENPSTQHALWLWLRGDERGDLLLRTQALEQALAPALSLADSVDGFLHRGGHDLTGYEDGTENPTDEEAVQAAIAADGSSFAAFQLWKHDLQYFKSLPQADQDNIIGRRLSDNEELDDAPESAHVKRTAQESFEPEAFMVRRSVSWADGRGAGLAFVALGHSFDAFEVQLRRMSGLEDGIIDGLYRFSRPLTGGYYWCPPMSETGVDLSPLLRA [L7I A194E Q222G K234H E237D] has a Tm of 65 °C.
MPFQQGILATPVPAHAVHLFFTLQSPEALPAALDALLPQVDGKQLLLGIGAPLAKALGREIPGLRPFPLLDAAVENPSTQHALWLWLRGDERGDLLLRTQALEQALAPALSLADSVDGFLHRGGHDLTGYEDGTENPTDEEAVQAAIAADGSSFAAFQLWKHDLDYFKSLPQAEQDNIIGRRLSDNEELDDAPASAHVKRTAQESFEPEAFMVRRSMSWADGRGAGLAFVALGKSFDAFEVQLRRMSGLEDGIIDGLYRFSRPLTGGYYWCPPMSETGVDLSALLRA [L7I R17V V49I Q165D D174E V217M Q222G E237D P283A] gave a Tm of 68 °C.
